Reference: paper PMC3821029

Substrate: CO[C@H]1O[C@H](COS(=O)(=O)O)[C@@H](O[C@@H]2O[C@@H](C(=O)O)[C@@H](O[C@H]3O[C@H](COS(=O)(=O)O)[C@@H](O[C@@H]4O[C@H](C(=O)O)[C@@H](O[C@H]5O[C@H](COS(=O)(=O)O)[C@@H](O)[C@H](O)[C@H]5NS(=O)(=O)O)[C@H](O)[C@H]4O)[C@H](OS(=O)(=O)O)[C@H]3NS(=O)(=O)O)[C@H](O)[C@H]2OS(=O)(=O)O)[C@H](O)[C@H]1NS(=O)(=O)O
Test: purified protein, by the assay type
Settings: pH 5.0

B1: Recombinant human heparanase (Homo sapiens) (protein)
chain 1: KKFKNSTYSRSSVDVLYTFANCSGLDLIFGLNALLRTADLQWNSSNAQLLLDYCSSKGYNISWELGNEPNSFLKKADIFINGSQLGEDFIQLHKLLRKSTFKNAKLYGPDVGQPRRKTAKMLKSFLKAGGEVIDSVTWHHYYLNGRTATKEDFLNPDVLDIFISSVQKVFQVVESTRPGKKVWLGETSSAYGGGAPLLSDTFAAGFMWLDKLGLSARMGIEVVMRQVFFGAGNYHLVDENFDPLPDYWLSLLFKKLVGTKVLMASVQGSKRRKLRVYLHCTNTDNPRYKEGDLTLYAINLHNVTKYLRLPYPFSNKQVDKYLLRPLGPHGLLSKSVQLNGLTLKMVDDQTLPPLMEKPLRPGSSLGLPAFSYSFFVIRNAKVAACI
chain 2: QDVVDLDFFTQEPLHLVSPSFLSVTIDANLATDPRFLILLGSPKLRTLARGLSPAYLRFGGTKTDFLIFDPKKE
Km: 3.6 ± 0.5 µM
